Data set [1] deals with T1, CpgB (CCNA_01218), bacterial ceramide kinase (Caulobacter vibrioides, UniProt A0A0H3C600).
T1 construct: full-length gene, N-terminal His tag (pET28a NdeI/EcoRI), expressed in E. coli BL21(DE3), HisTrap purified, soluble; tag removal not mentioned
T1 sequence (A0A0H3C600 1-330): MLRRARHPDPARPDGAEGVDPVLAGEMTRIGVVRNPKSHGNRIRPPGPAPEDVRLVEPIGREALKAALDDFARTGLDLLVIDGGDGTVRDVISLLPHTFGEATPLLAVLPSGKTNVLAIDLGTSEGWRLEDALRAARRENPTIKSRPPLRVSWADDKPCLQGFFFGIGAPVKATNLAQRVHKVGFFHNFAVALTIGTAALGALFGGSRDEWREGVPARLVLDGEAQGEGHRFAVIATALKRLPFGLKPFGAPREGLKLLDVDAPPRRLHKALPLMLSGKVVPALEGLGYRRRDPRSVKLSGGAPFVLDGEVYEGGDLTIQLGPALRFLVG
The data set is described as follows: NBD-ceramide kinase assay, TLC fluorescence imaging. Format: biochemical. The settings on record: read-out: % inhibition at 300 nM.

Substrate in the data set “purified protein”: Nc1ncnc2c1ncn2[C@@H]1O[C@H](COP(=O)(O)OP(=O)(O)OP(=O)(O)O)[C@@H](O)[C@H]1O
The data set is described as follows: purified protein. The following applies: 160 μM NBD-C6-ceramide fixed, 15 mM Mg2+, 20 mM Hepes pH 7.4, 30 °C.

Substrate in data set [2]: CCCCCCCCCCCCC/C=C/[C@@H](O)[C@H](CO)NC(=O)CCCCCNc1ccc([N+](=O)[O-])c2nonc12
The data set is described as follows: NBD-ceramide kinase assay, TLC fluorescence imaging. Format: biochemical, Caulobacter vibrioides. The following applies: 1 mM ATP fixed, 15 mM Mg2+, 20 mM Hepes pH 7.4, 30 °C, labelled compound (fluorescent NBD).

The inhibition is the share of the control response that was lost under treatment. For orientation: Km means the concentration of substrate that gives half-maximal velocity.

Consider `O=C(Nc1nc2ccc(NC(=O)C34CC5CC(CC(C5)C3)C4)cc2s1)c1ccccc1` [NVP-231], for which the inhibition at 0.3 µM in data set [1] was 20 to 25%.

B1: CpgB (CCNA_01218), bacterial ceramide kinase (Caulobacter vibrioides NA1000) (protein)
chain: T1 sequence (A0A0H3C600 1-330)
notes: full-length gene, N-terminal His tag (pET28a NdeI/EcoRI), expressed in E. coli BL21(DE3), HisTrap purified, soluble; tag removal not mentioned
As to B1, the results for the Km (in the data set “purified protein”; in data set [2]) were 290 ± 70 µM and 19.2 ± 5.5 µM, respectively.

For the origin of these results see PMC10331486, “Characterization of an evolutionarily distinct bacterial ceramide kinase from Caulobacter crescentus” (The Journal of Biological Chemistry, 2023).
